Data: paper PMC12106674
Blank lines part the entries; values can stand above or below the substance they belong to.

Columns and labels:
[1] = biological target: recombinant biotinylated human FcRn (Immunitrack) (human) (UniProt P55899); assay: SPR; biotinylated human FcRn (~100 RU) captured on an SA sensor chip; 2-fold serial dilutions of albumin variants or GLP-1 albumin fusions injected in duplicates; pH 5.5 PBS (177 mM phosphate, 85 mM NaCl, 0.05% Tween 20), 25 °C, 40 µL/min; 1:1 Langmuir model
[2] = biological target: recombinant biotinylated human FcRn (Immunitrack) (human) (UniProt P55899)
[3] = biological target: human GLP-1 receptor (GLP-1R) on reporter cells (human) (UniProt P43220)
[4] = biological target: human FcRn of the human FcRn Affinity Column (Roche) (human) (UniProt P55899); assay: analytical FcRn affinity chromatography; human FcRn Affinity Column (Roche); albumin or GLP-1 albumin fusions (2 mg/mL) loaded at pH 5.5 and eluted by a pH gradient from 5.5 (20 mM MES/HCl, 140 mM NaCl) to 8.8 (20 mM Tris/HCl, 140 mM NaCl), 0.5 mL/min, 110 min, room temperature
[5] = biological target: recombinant biotinylated human FcRn (Immunitrack) (human) (UniProt P55899); remark: listed apart in the source
[6] = biological target: recombinant biotinylated human FcRn (Immunitrack) (human) (UniProt P55899); remark: listed apart in the source

Chain of UniProt P43220 (P43220 24-463): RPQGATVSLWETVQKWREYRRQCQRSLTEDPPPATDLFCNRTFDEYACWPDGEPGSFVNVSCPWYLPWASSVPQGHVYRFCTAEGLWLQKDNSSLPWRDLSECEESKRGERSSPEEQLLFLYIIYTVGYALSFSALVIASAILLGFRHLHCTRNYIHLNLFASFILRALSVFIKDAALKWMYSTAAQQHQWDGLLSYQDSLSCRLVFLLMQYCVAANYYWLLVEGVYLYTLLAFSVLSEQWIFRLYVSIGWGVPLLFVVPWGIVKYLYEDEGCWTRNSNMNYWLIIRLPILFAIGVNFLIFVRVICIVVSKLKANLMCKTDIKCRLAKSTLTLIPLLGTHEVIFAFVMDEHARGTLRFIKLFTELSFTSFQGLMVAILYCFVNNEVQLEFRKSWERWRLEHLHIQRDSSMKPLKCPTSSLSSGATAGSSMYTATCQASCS

Substance: human albumin L585V (natural protein)
Kd [1]: 684 nM
koff [1]: 0.0233 s⁻¹
kon [1]: 34000 M⁻¹ s⁻¹

Substance: human albumin L585I (natural protein)
Kd [1]: 604 nM
koff [1]: 0.0175 s⁻¹
kon [1]: 29000 M⁻¹ s⁻¹

Substance: GLP-1 WT (albiglutide-mimic; two GLP-1(7-36) A2G in tandem fused to the N-terminus of human WT albumin) (from UniProt P02768 25-609)
EC50 of luciferase signal in human GLP-1R reporter cells (0.08–6250 nM, 23 h) [3]: 50 nM
Kd [1]: 114 nM
elution pH [4]: 6.7 pH

Substance: human albumin L585M (natural protein)
Kd [1]: 678 nM
koff [1]: 0.0197 s⁻¹
kon [1]: 29000 M⁻¹ s⁻¹

Substance: QMP variant recombinantly expressed without the L585 residue (QMP/LX) (natural protein)
Kd [1]: 0.9 nM
koff [1]: 0.0001 s⁻¹
kon [1]: 115000 M⁻¹ s⁻¹
plasma half-life after IV injection in hemizygous human FcRn Tg32 mice [2]: 103 h

Substance: Tanzeum (albiglutide) (from UniProt P02768 25-609)
Kd [1]: 76.1 nM
elution pH [4]: 6.9 pH

Substance: GLP-1 LX (GLP-1 albumin fusion with WT albumin lacking L585)
plasma half-life after IV injection in homozygous human FcRn Tg32 mice (GLP-1 WT: 1.3 days) [5]: 21.6 h
Kd [1]: 515 nM
koff [1]: 0.0221 s⁻¹
kon [1]: 43000 M⁻¹ s⁻¹
elution pH [4]: 6.3 pH
cellular recycling in HERA with HMEC-1-FcRn cells (800 nM), relative to GLP-1 WT [6]: 2 fold less

Substance: unfused GLP-1(7–36) included in the reporter assay kit (peptide)
EC50 of luciferase signal in human GLP-1R reporter cells (0.00062–50 nM, 23 h) [3]: 0.28 nM

Results, then the substance that gave them:

Kd [1]: 0.2 nM
Substance: GLP-1 QMP/LX (GLP-1 albumin fusion with QMP-engineered albumin lacking L585)

Kd [1]: 0.3 nM
koff [1]: 4e-05 s⁻¹
kon [1]: 144000 M⁻¹ s⁻¹
plasma half-life after IV injection in hemizygous human FcRn Tg32 mice [2]: 108 h
Substance: QMP-engineered human albumin (E505Q, T527M, K573P), full-length (natural protein)

EC50 of luciferase signal in human GLP-1R reporter cells (0.08–6250 nM, 23 h) [3]: 44.4 nM
plasma half-life after IV injection in homozygous human FcRn Tg32 mice (GLP-1 WT: 1.3 days) [5]: 64.8 h
Kd [1]: < 0.03 nM
koff [1]: < 1e-05 s⁻¹
kon [1]: 381000 M⁻¹ s⁻¹
elution pH [4]: 7.8 pH
cellular recycling in HERA with HMEC-1-FcRn cells (800 nM), relative to GLP-1 WT [6]: 4.5 fold
Substance: GLP-1 QMP (GLP-1 albumin fusion with QMP-engineered albumin)
